Patent publication US20240117030A1 (Pfizer, published 2024)
Substitutions are numbered along the chain they refer to. Values belong to the binder of their own block, whether it stands above or below them.

Legend:
Assay in all cases: cell-based or functional assay
human IL-4 [1] = target: T1, human IL-4 (human, UniProt P05112 25-153)
T1 sequence (looked up): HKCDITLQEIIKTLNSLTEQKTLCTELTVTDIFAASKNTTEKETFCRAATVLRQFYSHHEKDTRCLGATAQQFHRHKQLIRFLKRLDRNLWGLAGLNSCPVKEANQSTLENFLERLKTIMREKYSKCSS

human TSLP (long form) = human TSLP (long form) (human, UniProt Q969D9 29-159, Biotinylated on the Avi tag in some assays; glycosylated (Expi293F expression))
human IL-13 [2] = target: human IL-13 (human, UniProt P35225 35-146)
human IL-4 [3] = target: T2, human IL-4 (human, UniProt P05112 25-153); remark: listed apart in the source
T2 sequence (looked up): T1 sequence (looked up)

human IL-13 [4] = target: human IL-13 (human, UniProt P35225 35-146); remark: listed apart in the source
[5] = target: T3, IL-33 (mm2), human IL-33 variant with all four cysteines changed to serine (human, UniProt O95760 112-270, limits assumed)
T3 sequence (looked up): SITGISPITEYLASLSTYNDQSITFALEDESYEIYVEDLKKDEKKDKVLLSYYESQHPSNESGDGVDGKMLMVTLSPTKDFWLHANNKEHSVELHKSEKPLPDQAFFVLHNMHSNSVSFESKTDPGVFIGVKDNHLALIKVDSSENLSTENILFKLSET

[6] = target: T4, recombinant human TSLP (glycosylated long form) (human, UniProt Q969D9 29-159)
[7] = target: T4, recombinant human TSLP (glycosylated …); remark: listed apart in the source

B1: IL413TSLP-1037 (trispecific antibody)
heavy: not shown
chain 1: DIQMTQSPSSLSASVGDRVTITCKASESVDHFGWSLVHWYQQKPGKAPKLLIYRASNLESGVPSRFSGSGSGTDFTLTISSLQPEDFATYYCQQSNEDPWTFGGGTKVEIKRTVAAPSVFIFPPSDEQLKSGTASVVCLLNNFYPREAKVQWKVDNALQSGNSQESVTEQDSKDSTYSLSSTLTLSKADYEKHKVYACEVTHQGLSSPVTKSFNRGECGGGGSEVTLRESGPALVKPTQTLTLTCTFSGFSLSNFGEGLSWIRQPPGKGLEWLAHIYWDDDKRYNPSLKSRLTISKDTSRNQVVLTMTNMDPVDTATYYCARRETVFYWYFDVWGQGTTVTVSSASTKGPSVFPLAPSSKSTSGGTAALGCLVKDYFPEPVTVSWNSGALTSGVHTFPAVLQSSGLYSLSSVVTVPSSSLGTQTYICNVNHKPSNTKVDKKVEPKSCEKTHTCPPCPAPEAAGAPSVFLFPPKPKDTLMISRTPEVTCVVVDVSHEDPEVKFNWYVDGVEVHNAKTKPREEQYNSTYRVVSVLTVLHQDWLNGKEYKCKVSNKALPAPIEKTISKAKGQPREPQVYTLPPSREEMTKNQVSLTCEVKGFYPSDIAVEWESNGQPENNYKTTPPVLDSDGSFFLYSKLTVDKSRWQQGNVFSCSVLHEALHSHYTQKSLSLSPGK
light 1: SYVLTQPPSVSVAPGQTARITCGGNNLGSKSVHWYQQKPGQAPVLVVYDDKDRPSWIPERFSGSNSGNTATLTISRGEAGDEADYYCQVWDKSSDHVVFGGGTKLTVLGQPKAAPSVTLFPPSSEELQANKATLVCLISDFYPGAVTVAWKADSSPVKAGVETTTPSKQSNNKYAASSYLSLTPEQWKSHRSYSCQVTHEGSTVEKTVAPTECS
light 2: DIQMTQSPSSLSASVGDRVTITCRASQSVDEEGDSYMNWYQQKPGKAPKLLIYAASNLESGVPSRFSGSGSGTDFTLTISSLQPEDFATYYCQQSNKDPPTFGGGTKVEIKRTVAAPSVFIFPPSDEQLKSGTASVVCLLNNFYPREAKVQWKVDNALQSGNSQESVTEQDSKDSTYSLSSTLTLSKADYEKHKVYACEVTHQGLSSPVTKSFNRGEC
chain 2: EVQLVESGGGLVQPGGSLRLSCAASGFTFSSYAMSWVRQAPGKGLEWVASISSGDTTYYPDSVKGRFTISRDNAKNSLYLQMNSLRAEDTAVYYCARNEGYYFGLTLWGQGTLVTVSSASTKGPSVFPLAPSSKSTSGGTAALGCLVKDYFPEPVTVSWNSGALTSGVHTFPAVLQSSGLYSLSSVVTVPSSSLGTQTYICNVNHKPSNTKVDKKVEPKSC
IC50, IL-4-induced CCL17 secretion by 769-P cells (human IL-4 [1]): 0.179 nM
fold lower potency than the mAb (TSLP-0871), monocyte TARC bioassay (human TSLP (long form)): ~2.5 fold
IC50, IL-13-induced CCL17 secretion by 769-P cells (human IL-13 [2]): 0.593 nM

B2: IL13433-0005 (other)
heavy: EVTLRESGPALVKPTQTLTLTCTFSGFSLSNFGEGLSWIRQPPGKGLEWLAHIYWDDDKRYNPSLKSRLTISKDTSRNQVVLTMTNMDPVDTATYYCARRETVFYWYFDVWGQGTTVTVSSASTKGPSVFPEAPSSKSTSGGTAALGCLVKDYFPEPVTVSWNSGALTSGVHTFPAVLQSSGLYSLGSVVTVPSSSLGTQTYICNVNHKPSNTKVDKKVEPKSCDKTHTCPPCPAPEAAGAPSVFLFPPKPKDTLMISRTPEVTCVVVDVSHEDPEVKFNWYVDGVEVHNAKTKPREEQYNSTYRVVSVLTVLHQDWLNGKEYKCKVSNKALPAPIEKTISKAKGQPREPQVYTLPPCREEMTKNQVSLSCAVKGFYPSDIAVEWESNGQPENNYKTTPPVLDSDGSFFLVSKLTVDKSRWQQGNVFSCSVMHEALHNHYTQKSLSLSPGK
chain 1: DIQMTQSPSSLSASVGDRVTITCKASQNINKHLDWYQQKPGKAPKLLIYFTNNLQTGVPSRFSGSGSGTDFTLTISSLQPEDFATYYCFQYNQGWTFGGGTKVEIKRTVAAPSVFIFPPSDEQLKSGTASVVCLLNNFYPREAKVQWKVDNALQSGNSQESVTEQDSKDSTYSLSSTLTLSKADYEKHKVYACEVTHQGLSSPVTKSFNRGECGGGGSEVQLVESGGGLVQPGGSLRLSCAASGFTFSSYAMSWVRQAPGKGLEWVASISSGDTTYYPDSVKGRFTISRDNAKNSLYLQMNSLRAEDTAVYYCARNEGYYFGLTLWGQGTLVTVSSASTKGPSVFPKAPSSKSTSGGTAALGCLVKDYFPEPVTVSWNSGALTSGVHTFPAVLQSSGLYSLSSSVTVPSSSLGTQTYICNVNHKPSNTKVDKKVEPKSCDKTHTCPPCPAPEAAGAPSVFLFPPKPKDTLMISRTPEVTCVVVDVSHEDPEVKFNWYVDGVEVHNAKTKPREEQYNSTYRVVSVLTVLHQDWLNGKEYKCKVSNKALPAPIEKTISKAKGQPREPQVCTLPPSREEMTKNQVSLWCLVKGFYPSDIAVEWESNGQPENNYKTTPPVLDSDGSFFLYSKLTVDKSRWQQGNVFSCSVMHEALHNHYTQKSLSLSPGK
light 1: B1 light 2 with R24K, E32D, K97E, V137S, S180K
light 2: DIQMTQSPSSLSASVGDRVTITCKASESVDHFGWSLVHWYQQKPGKAPKLLIYRASNLESGVPSRFSGSGSGTDFTLTISSLQPEDFATYYCQQSNEDPWTFGGGTKVEIKRTVAAPSVFIFPPSDEQLKSGTASVSCLLNNFYPREAKVQWKVDNALQSGNSQESVTEQDSKDSTYSLDSTLTLSKADYEKHKVYACEVTHQGLSSPVTKSFNRGEC
chain 2: EVQLVESGGGLVQPGGSLRLSCAASGFTFSSYWMYWVRQAPGKGLEWVAAITPNAGEDYYPESVKGRFTISRDNAKNSLYLQMNSLRAEDTAVYYCARGHYYYTSYSLGYWGQGTLVTVSSASTKGPSVFPLAPSSKSTSGGTAALGCLVKDYFPEPVTVSWNSGALTSGVHTFPAVLQSSGLYSLSSVVTVPSSSLGTQTYICNVNHKPSNTKVDKKVEPKSC
a-hIL-4 bioassay IC50, pM) (human IL-4 [3]): 3.2 pM
a-hIL-13 bioassay (IC50, pM) (human IL-13 [4]): 12.5 pM
a-IL-33 bioassay cys mutant IL33) IC50 (pM) [5]: 45 pM

Now from value to binder:

a-TSLP TARC bioassay (fold change to TSLP-0001) [6]: 3.4 fold
TARC bioassay (IC50, pM) [7]: 6.65 pM
B3: TSLP-0260 (antibody, V domains shown)
VH: QMQLVESGGGVVQPGRSLRLSCAASGFTFRTYGMHWVRQAPGKGLEWVAVIWYDGSNKHYADSVKGRFTISRDNSKNTLYLQMNSLRAEDTAVYYCARAPQWYLVHEAFDIWGQGTMVTVSS
VL: SYVLTQPPSVSVAPGQTARITCGGNNLGSKSVHWYQQKPGQAPVLVVYDDSDRPSWIPERFSGSNSGNTATLTISRGEAGDEADYYCQVWDESSDHVVFGGGTKLTVLG

TARC bioassay (IC50, pM) [7]: 4.25 pM
B4: TSLP-0156 (antibody, human IgG1, lambda, V domains shown)
VH: B3 VH
VL: B3 VL with E92S
